Measured values taken from paper PMC9482650, “Quantitative fragmentomics allow affinity mapping of interactomes” (Nature Communications, 2022).

T1: PDZRN3_1, Q9UPQ7
T1 sequence (Q9UPQ7 244-349, limits assumed, looked up): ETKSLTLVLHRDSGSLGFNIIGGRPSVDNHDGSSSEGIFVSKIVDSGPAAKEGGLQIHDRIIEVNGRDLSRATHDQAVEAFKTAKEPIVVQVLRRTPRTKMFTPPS

T2: LNX2_2, Q8N448
T2 sequence (Q8N448 334-432, limits assumed, looked up): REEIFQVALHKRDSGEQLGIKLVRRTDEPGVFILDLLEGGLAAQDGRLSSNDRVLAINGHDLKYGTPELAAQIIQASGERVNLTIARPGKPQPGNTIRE

T3: HTRA4, P83105
T3 sequence (P83105 378-476, limits assumed, looked up): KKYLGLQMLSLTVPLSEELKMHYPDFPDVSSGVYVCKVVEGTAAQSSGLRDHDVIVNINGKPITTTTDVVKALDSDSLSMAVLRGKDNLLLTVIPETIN

T4: ARHGAP21, Q5T5U3
T4 sequence (Q5T5U3 45-169, limits assumed, looked up): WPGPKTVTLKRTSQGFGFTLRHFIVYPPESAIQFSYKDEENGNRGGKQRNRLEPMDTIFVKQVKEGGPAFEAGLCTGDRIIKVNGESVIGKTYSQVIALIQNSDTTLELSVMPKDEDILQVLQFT

T5: APBA2_2, Q99767
T5 sequence (Q99767 654-744, limits assumed, looked up): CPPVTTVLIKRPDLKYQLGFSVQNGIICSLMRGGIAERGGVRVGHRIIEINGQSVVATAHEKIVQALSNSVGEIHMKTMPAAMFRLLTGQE

T6: LIN7C, Q9NUP9
T6 sequence (Q9NUP9 88-185, limits assumed, looked up): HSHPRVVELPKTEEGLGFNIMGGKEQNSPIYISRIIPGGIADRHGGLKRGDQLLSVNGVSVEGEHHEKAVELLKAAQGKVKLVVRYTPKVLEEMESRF


What follows are binders tested against T1, PDZRN3_1, Q9UPQ7 (assay: holdup assay). Details: plain residues with an end cap or a label only (N-terminal biotin on a linker: ado-ado).
Parameters: key: below the threshold = too weak to quantify, mostly under pKd 3.1 to 4
IPGKEFDTPL [PLCB1, Q9NQ66] gave a pKd of 4.33.

Each binder was assayed against Inadl_8, Q8NI35 (assay: holdup assay). Details: plain residues with an end cap or a label only (N-terminal biotin on a linker: ado-ado).
Inadl_8, Q8NI35, sequence (Q8NI35 1425-1530): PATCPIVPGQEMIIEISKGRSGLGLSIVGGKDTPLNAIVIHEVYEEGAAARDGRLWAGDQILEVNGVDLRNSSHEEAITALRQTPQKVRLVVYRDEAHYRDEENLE
Parameters: key: below the threshold = too weak to quantify, mostly under pKd 3.1 to 4
In the case of IPGKEFDTPL [PLCB1, Q9NQ66], the pKd is reported as “below the threshold”.

Each binder was assayed against MAGI1_1, Q96QZ7 (assay: holdup assay). Details: plain residues with an end cap or a label only (N-terminal biotin on a linker: ado-ado).
MAGI1_1, Q96QZ7, sequence (Q96QZ7 1-106): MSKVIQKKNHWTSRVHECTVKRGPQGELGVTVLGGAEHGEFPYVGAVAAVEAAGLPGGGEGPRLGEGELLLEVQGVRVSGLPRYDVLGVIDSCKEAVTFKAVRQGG
Parameters: key: below the threshold = too weak to quantify, mostly under pKd 3.1 to 4
For IPGKEFDTPL [PLCB1, Q9NQ66], the pKd was “below the threshold”.

Each binder was assayed against GOPC, Q9HD26 (assay: holdup assay). Details: plain residues with an end cap or a label only (N-terminal biotin on a linker: ado-ado).
Parameters: key: below the threshold = too weak to quantify, mostly under pKd 3.1 to 4
With IPGKEFDTPL [PLCB1, Q9NQ66] the pKd was “below the threshold”.

These binders were tested against Inadl_5, Q8NI35 (assay: holdup assay). Details: plain residues with an end cap or a label only (N-terminal biotin on a linker: ado-ado).
Inadl_5, Q8NI35, sequence (Q8NI35 673-780): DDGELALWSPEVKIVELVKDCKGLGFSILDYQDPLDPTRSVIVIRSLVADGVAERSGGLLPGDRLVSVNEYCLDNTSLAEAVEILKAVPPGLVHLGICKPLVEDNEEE
Parameters: key: below the threshold = too weak to quantify, mostly under pKd 3.1 to 4
For IPGKEFDTPL [PLCB1, Q9NQ66], the pKd was “below the threshold”.

These binders were tested against MAGI2_3, Q86UL8 (assay: holdup assay). Details: plain residues with an end cap or a label only (N-terminal biotin on a linker: ado-ado).
MAGI2_3, Q86UL8, sequence (Q86UL8 600-682): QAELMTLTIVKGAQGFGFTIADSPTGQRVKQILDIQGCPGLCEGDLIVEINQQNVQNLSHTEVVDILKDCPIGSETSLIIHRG
Parameters: key: below the threshold = too weak to quantify, mostly under pKd 3.1 to 4
IPGKEFDTPL [PLCB1, Q9NQ66] was tested, and the pKd was “below the threshold”.

The binders below were run against LDB3, O75112 (assay: holdup assay). Details: plain residues with an end cap or a label only (N-terminal biotin on a linker: ado-ado).
LDB3, O75112, sequence (O75112 1-94): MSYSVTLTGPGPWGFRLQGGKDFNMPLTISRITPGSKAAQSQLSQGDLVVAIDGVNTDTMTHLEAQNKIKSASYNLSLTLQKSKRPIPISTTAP
Parameters: key: below the threshold = too weak to quantify, mostly under pKd 3.1 to 4
For IPGKEFDTPL [PLCB1, Q9NQ66], the pKd was “below the threshold”.

These binders were tested against GRIP2_4, Q9C0E4 (assay: holdup assay). Details: plain residues with an end cap or a label only (N-terminal biotin on a linker: ado-ado).
GRIP2_4, Q9C0E4, sequence (Q9C0E4 446-548): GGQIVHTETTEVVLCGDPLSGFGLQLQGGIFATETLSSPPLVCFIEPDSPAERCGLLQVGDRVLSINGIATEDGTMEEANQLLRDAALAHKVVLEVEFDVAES
Parameters: key: below the threshold = too weak to quantify, mostly under pKd 3.1 to 4
IPGKEFDTPL [PLCB1, Q9NQ66] was tested, and the pKd was “below the threshold”.

Each binder was assayed against DLG4_3, P78352 (assay: holdup assay). Details: plain residues with an end cap or a label only (N-terminal biotin on a linker: ado-ado).
DLG4_3, P78352, sequence (P78352 306-403): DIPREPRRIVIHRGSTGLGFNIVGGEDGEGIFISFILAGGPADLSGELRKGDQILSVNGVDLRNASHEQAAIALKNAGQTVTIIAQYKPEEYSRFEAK
Parameters: key: below the threshold = too weak to quantify, mostly under pKd 3.1 to 4
With IPGKEFDTPL [PLCB1, Q9NQ66] the pKd was “below the threshold”.

Each binder was assayed against HTRA1, Q92743 (assay: holdup assay). Details: plain residues with an end cap or a label only (N-terminal biotin on a linker: ado-ado).
HTRA1, Q92743, sequence (Q92743 360-477): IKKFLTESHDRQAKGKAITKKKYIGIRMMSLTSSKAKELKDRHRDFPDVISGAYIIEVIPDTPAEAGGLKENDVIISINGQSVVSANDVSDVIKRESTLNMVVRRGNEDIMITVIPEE
Parameters: key: below the threshold = too weak to quantify, mostly under pKd 3.1 to 4
For IPGKEFDTPL [PLCB1, Q9NQ66], the pKd was “below the threshold”.

Each binder was assayed against FRMPD3, Q5JV73 (assay: holdup assay). Details: plain residues with an end cap or a label only (N-terminal biotin on a linker: ado-ado).
FRMPD3, Q5JV73, sequence (Q5JV73 12-100): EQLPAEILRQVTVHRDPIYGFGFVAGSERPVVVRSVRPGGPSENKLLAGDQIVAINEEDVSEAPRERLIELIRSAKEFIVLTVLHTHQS
Parameters: key: below the threshold = too weak to quantify, mostly under pKd 3.1 to 4
IPGKEFDTPL [PLCB1, Q9NQ66] was tested, and the pKd was 3.55.

The binders below were run against GORASP1, Q9BQQ3 (assay: holdup assay). Details: plain residues with an end cap or a label only (N-terminal biotin on a linker: ado-ado).
GORASP1, Q9BQQ3, sequence (Q9BQQ3 1-208): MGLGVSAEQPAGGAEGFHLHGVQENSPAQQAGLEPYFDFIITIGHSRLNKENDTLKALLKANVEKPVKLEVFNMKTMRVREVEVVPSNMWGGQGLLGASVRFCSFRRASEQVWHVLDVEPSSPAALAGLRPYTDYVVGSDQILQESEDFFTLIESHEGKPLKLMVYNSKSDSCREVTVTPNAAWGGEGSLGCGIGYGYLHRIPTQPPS
Parameters: key: below the threshold = too weak to quantify, mostly under pKd 3.1 to 4
With IPGKEFDTPL [PLCB1, Q9NQ66] the pKd was “below the threshold”.

The binders below were run against IL16_3, Q14005 (assay: holdup assay). Details: plain residues with an end cap or a label only (N-terminal biotin on a linker: ado-ado).
IL16_3, Q14005, sequence (Q14005 1107-1207): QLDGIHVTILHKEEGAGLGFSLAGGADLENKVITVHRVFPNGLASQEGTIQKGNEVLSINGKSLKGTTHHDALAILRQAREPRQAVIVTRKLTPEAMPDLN
Parameters: key: below the threshold = too weak to quantify, mostly under pKd 3.1 to 4
IPGKEFDTPL [PLCB1, Q9NQ66] was tested, and the pKd was “below the threshold”.

Each binder was assayed against T2, LNX2_2, Q8N448 (assay: holdup assay). Details: plain residues with an end cap or a label only (N-terminal biotin on a linker: ado-ado).
Parameters: key: below the threshold = too weak to quantify, mostly under pKd 3.1 to 4
IPGKEFDTPL [PLCB1, Q9NQ66] was tested, and the pKd was “below the threshold”.

The binders below were run against TJP1_2, Q07157 (assay: holdup assay). Details: plain residues with an end cap or a label only (N-terminal biotin on a linker: ado-ado).
TJP1_2, Q07157, sequence (Q07157 181-274): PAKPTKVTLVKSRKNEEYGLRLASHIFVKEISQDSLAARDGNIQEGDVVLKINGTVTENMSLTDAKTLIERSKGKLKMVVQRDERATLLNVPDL
Parameters: key: below the threshold = too weak to quantify, mostly under pKd 3.1 to 4
IPGKEFDTPL [PLCB1, Q9NQ66] was tested, and the pKd was “below the threshold”.

Each binder was assayed against LAP2, Q96RT1 (assay: holdup assay). Details: plain residues with an end cap or a label only (N-terminal biotin on a linker: ado-ado).
LAP2, Q96RT1, sequence (Q96RT1 other isoform, or with tags, fused parts or gaps): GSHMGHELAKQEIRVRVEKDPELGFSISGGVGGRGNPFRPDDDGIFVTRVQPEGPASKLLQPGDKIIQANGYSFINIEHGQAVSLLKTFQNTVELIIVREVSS
Parameters: key: below the threshold = too weak to quantify, mostly under pKd 3.1 to 4
IPGKEFDTPL [PLCB1, Q9NQ66] showed a pKd of 3.58.

These binders were tested against GRASP, Q7Z6J2 (assay: holdup assay). Details: plain residues with an end cap or a label only (N-terminal biotin on a linker: ado-ado).
GRASP, Q7Z6J2, sequence (Q7Z6J2 96-193): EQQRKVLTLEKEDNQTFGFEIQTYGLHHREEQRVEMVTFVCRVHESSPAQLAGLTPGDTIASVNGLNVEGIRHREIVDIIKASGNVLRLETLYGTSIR
Parameters: key: below the threshold = too weak to quantify, mostly under pKd 3.1 to 4
With IPGKEFDTPL [PLCB1, Q9NQ66] the pKd was “below the threshold”.

What follows are binders tested against GRIP2_7, Q9C0E4 (assay: holdup assay). Details: plain residues with an end cap or a label only (N-terminal biotin on a linker: ado-ado).
GRIP2_7, Q9C0E4, sequence (Q9C0E4 934-1023): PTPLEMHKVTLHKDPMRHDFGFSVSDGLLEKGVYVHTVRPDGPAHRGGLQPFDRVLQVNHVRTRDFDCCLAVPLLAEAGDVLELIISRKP
Parameters: key: below the threshold = too weak to quantify, mostly under pKd 3.1 to 4
For IPGKEFDTPL [PLCB1, Q9NQ66], the pKd was “below the threshold”.

What follows are binders tested against T3, HTRA4, P83105 (assay: holdup assay). Details: plain residues with an end cap or a label only (N-terminal biotin on a linker: ado-ado).
Parameters: key: below the threshold = too weak to quantify, mostly under pKd 3.1 to 4
IPGKEFDTPL [PLCB1, Q9NQ66] was tested, and the pKd was “below the threshold”.

What follows are binders tested against Inadl_4, Q8NI35 (assay: holdup assay). Details: plain residues with an end cap or a label only (N-terminal biotin on a linker: ado-ado).
Inadl_4, Q8NI35, sequence (Q8NI35 547-651): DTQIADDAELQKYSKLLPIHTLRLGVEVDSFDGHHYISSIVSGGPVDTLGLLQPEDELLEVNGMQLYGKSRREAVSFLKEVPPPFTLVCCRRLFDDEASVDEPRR
Parameters: key: below the threshold = too weak to quantify, mostly under pKd 3.1 to 4
IPGKEFDTPL [PLCB1, Q9NQ66] was tested, and the pKd was “below the threshold”.

These binders were tested against LNX1_1, Q8TBB1 (assay: holdup assay). Details: plain residues with an end cap or a label only (N-terminal biotin on a linker: ado-ado).
LNX1_1, Q8TBB1, sequence (Q8TBB1 261-371): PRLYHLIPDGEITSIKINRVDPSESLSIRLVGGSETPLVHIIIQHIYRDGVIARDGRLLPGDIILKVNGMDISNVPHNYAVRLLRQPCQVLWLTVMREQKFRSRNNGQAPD
Parameters: key: below the threshold = too weak to quantify, mostly under pKd 3.1 to 4
With IPGKEFDTPL [PLCB1, Q9NQ66] the pKd was “below the threshold”.

These binders were tested against FRMPD4, Q14CM0 (assay: holdup assay). Details: plain residues with an end cap or a label only (N-terminal biotin on a linker: ado-ado).
FRMPD4, Q14CM0, sequence (Q14CM0 67-160): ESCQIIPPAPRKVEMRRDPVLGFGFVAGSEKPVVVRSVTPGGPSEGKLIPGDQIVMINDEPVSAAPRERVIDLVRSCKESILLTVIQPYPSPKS
Parameters: key: below the threshold = too weak to quantify, mostly under pKd 3.1 to 4
In the case of IPGKEFDTPL [PLCB1, Q9NQ66], the pKd is reported as 4.95.

Each binder was assayed against DLG1_2, Q12959 (assay: holdup assay). Details: plain residues with an end cap or a label only (N-terminal biotin on a linker: ado-ado).
DLG1_2, Q12959, sequence (Q12959 314-412): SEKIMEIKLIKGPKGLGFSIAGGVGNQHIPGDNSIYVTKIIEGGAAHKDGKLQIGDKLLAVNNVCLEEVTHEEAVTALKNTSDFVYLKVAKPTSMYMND
Parameters: key: below the threshold = too weak to quantify, mostly under pKd 3.1 to 4
For IPGKEFDTPL [PLCB1, Q9NQ66], the pKd was 3.57.

Each binder was assayed against T4, ARHGAP21, Q5T5U3 (assay: holdup assay). Details: plain residues with an end cap or a label only (N-terminal biotin on a linker: ado-ado).
Parameters: key: below the threshold = too weak to quantify, mostly under pKd 3.1 to 4
Work on IPGKEFDTPL [PLCB1, Q9NQ66] yielded a pKd of 3.58.

Each binder was assayed against MAGI2_5, Q86UL8 (assay: holdup assay). Details: plain residues with an end cap or a label only (N-terminal biotin on a linker: ado-ado).
MAGI2_5, Q86UL8, sequence (Q86UL8 915-1017): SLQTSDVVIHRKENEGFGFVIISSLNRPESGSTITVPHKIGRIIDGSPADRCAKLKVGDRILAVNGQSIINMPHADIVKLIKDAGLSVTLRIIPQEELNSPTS
Parameters: key: below the threshold = too weak to quantify, mostly under pKd 3.1 to 4
For IPGKEFDTPL [PLCB1, Q9NQ66], the pKd was “below the threshold”.

What follows are binders tested against PDLIM1, O00151 (assay: holdup assay). Details: plain residues with an end cap or a label only (N-terminal biotin on a linker: ado-ado).
PDLIM1, O00151, sequence (O00151 1-87): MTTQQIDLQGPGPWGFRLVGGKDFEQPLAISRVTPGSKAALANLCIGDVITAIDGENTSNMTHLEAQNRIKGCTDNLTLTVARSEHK
Parameters: key: below the threshold = too weak to quantify, mostly under pKd 3.1 to 4
With IPGKEFDTPL [PLCB1, Q9NQ66] the pKd was “below the threshold”.

The binders below were run against DLG4_2, P78352 (assay: holdup assay). Details: plain residues with an end cap or a label only (N-terminal biotin on a linker: ado-ado).
DLG4_2, P78352, sequence (P78352 155-259): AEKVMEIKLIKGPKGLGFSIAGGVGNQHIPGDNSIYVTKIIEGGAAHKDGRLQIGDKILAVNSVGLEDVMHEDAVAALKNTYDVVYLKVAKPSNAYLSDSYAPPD
Parameters: key: below the threshold = too weak to quantify, mostly under pKd 3.1 to 4
With IPGKEFDTPL [PLCB1, Q9NQ66] the pKd was “below the threshold”.

What follows are binders tested against MAGI2_2, Q86UL8 (assay: holdup assay). Details: plain residues with an end cap or a label only (N-terminal biotin on a linker: ado-ado).
MAGI2_2, Q86UL8, sequence (Q86UL8 410-522): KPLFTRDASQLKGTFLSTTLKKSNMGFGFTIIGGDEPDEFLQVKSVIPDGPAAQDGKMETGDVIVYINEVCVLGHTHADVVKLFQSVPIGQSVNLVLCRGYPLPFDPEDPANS
Parameters: key: below the threshold = too weak to quantify, mostly under pKd 3.1 to 4
For IPGKEFDTPL [PLCB1, Q9NQ66], the pKd was “below the threshold”.

These binders were tested against IL16_4, Q14005 (assay: holdup assay). Details: plain residues with an end cap or a label only (N-terminal biotin on a linker: ado-ado).
IL16_4, Q14005, sequence (Q14005 1229-1329): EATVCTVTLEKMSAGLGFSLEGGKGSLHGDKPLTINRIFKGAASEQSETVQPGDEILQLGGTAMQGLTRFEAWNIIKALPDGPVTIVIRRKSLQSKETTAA
Parameters: key: below the threshold = too weak to quantify, mostly under pKd 3.1 to 4
IPGKEFDTPL [PLCB1, Q9NQ66] was tested, and the pKd was “below the threshold”.

These binders were tested against T5, APBA2_2, Q99767 (assay: holdup assay). Details: plain residues with an end cap or a label only (N-terminal biotin on a linker: ado-ado).
Parameters: key: below the threshold = too weak to quantify, mostly under pKd 3.1 to 4
For IPGKEFDTPL [PLCB1, Q9NQ66], the pKd was “below the threshold”.

Each binder was assayed against DLG2_3, Q15700 (assay: holdup assay). Details: plain residues with an end cap or a label only (N-terminal biotin on a linker: ado-ado).
Parameters: key: below the threshold = too weak to quantify, mostly under pKd 3.1 to 4
With IPGKEFDTPL [PLCB1, Q9NQ66] the pKd was “below the threshold”.

The binders below were run against DLG4_1, P78352 (assay: holdup assay). Details: plain residues with an end cap or a label only (N-terminal biotin on a linker: ado-ado).
DLG4_1, P78352, sequence (P78352 62-152): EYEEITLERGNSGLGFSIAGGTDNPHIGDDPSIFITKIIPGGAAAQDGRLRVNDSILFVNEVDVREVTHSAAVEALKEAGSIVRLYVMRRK
Parameters: key: below the threshold = too weak to quantify, mostly under pKd 3.1 to 4
IPGKEFDTPL [PLCB1, Q9NQ66] gave a pKd of 3.51.

The binders below were run against T6, LIN7C, Q9NUP9 (assay: holdup assay). Details: plain residues with an end cap or a label only (N-terminal biotin on a linker: ado-ado).
Parameters: key: below the threshold = too weak to quantify, mostly under pKd 3.1 to 4
For IPGKEFDTPL [PLCB1, Q9NQ66], the pKd was “below the threshold”.
